1 substance from paper PMC9772109 can be followed below.

This experiment deals with recombinant stabilized HA trimer of H1N1 virus A/Solomon Islands/3/2006 (H1 SI06) (influenza A virus A/Solomon Islands/3/2006 (H1N1)). Briefly: cryo-EM structure.

“recombinant stabilized HA trimer of H1N1 virus A/Solomon Islands/3/2006 (H1 SI06) (natural protein)”: the stoichiometry N was 3.
